# According to PMC4161306, “Regulation of Arabidopsis Flowering by the Histone Mark Readers MRG1/2 via Interaction with CONSTANS to Modulate FT Expression” (PLoS Genetics, 2014):
# B1: MRG2: Arabidopsis Morf Related Gene group protein MRG2 (protein, UniProt Q4V3E2 1-327, looked up)
# Protein MRG2: MGSPNAAAETDLTTDDFIGDTRRDSGSDTETNTDCDGEDLPLLLLPAPPGHFEEGERVLAKHSDCFYEAKVLKVEFKDNEWKYFVHYIGWNKSWDEWIRLDCLLKHSDENIEKQKEQGLKQQGIKSAMAWKVSKMKPRSPNVARGRKRKQDSVDTEKNVLPSDNLLSFNIPPALRKQLLDDFEFVTQMQKLVQLPRSPNVDGILKKYIDSQMKKHGRVTDSLEEILKGLRCYFDKALPVMLLYNNERKQYEESVSGGVSPSTVYGAEHLLRLFVKLPELLVHVNMAEETLKELQDNFVDILRFLRKNQSVLFVSTYKAVEEMEKKEG
# B2: MRG2N: chromodomain of MRG2, cDNA 1–369 (protein)
# chain: MGSPNAAAETDLTTDDFIGDTRRDSGSDTETNTDCDGEDLPLLLLPAPPGHFEEGERVLAKHSDCFYEAKVLKVEFKDNEWKYFVHYIGWNKSWDEWIRLDCLLKHSDENIEKQKEQGLKQQG
# modifications: left off: His tag, N-terminal, kept
# B3: MRG2C: MRG domain of MRG2, cDNA 442–984 (protein)
# chain: RKQDSVDTEKNVLPSDNLLSFNIPPALRKQLLDDFEFVTQMQKLVQLPRSPNVDGILKKYIDSQMKKHGRVTDSLEEILKGLRCYFDKALPVMLLYNNERKQYEESVSGGVSPSTVYGAEHLLRLFVKLPELLVHVNMAEETLKELQDNFVDILRFLRKNQSVLFVSTYKAVEEMEKKEG
# modifications: left off: His tag, end not stated, kept
# B4: GST-fused CO: GST-fused CONSTANS protein purified from E. coli (protein)
# chain: MLKQESNDIGSGENNRARPCDTCRSNACTVYCHADSAYLCMSCDAQVHSANRVASRHKRVRVCESCERAPAAFLCEADDASLCTACDSEVHSANPLARRHQRVPILPISGNSFSSMTTTHHQSEKTMTDPEKRLVVDQEEGEEGDKDAKEVASWLFPNSDKNNNNQNNGLLFSDEYLNLVDYNSSMDYKFTGEYSQHQQNCSVPQTSYGGDRVVPLKLEESRGHQCHNQQNFQFNIKYGSSGTHYNDNGSINHNAYISSMETGVVPESTACVTTASHPRTPKGTVEQQPDPASQMITVTQLSPMDREARVLRYREKRKTRKFEKTIRYASRKAYAEIRPRVNGRFAKREIEAEEQGFNTMLMYNTGYGIVPSF
# modifications: left off: GST, end not stated, kept
# notes: GST-fused CONSTANS protein purified from E. coli
# Columns and labels:
# CO [1] = assay: Bimolecular fluorescence complementation (BiFC) in tobacco leaf cells; format: cell-based, Arabidopsis; conditions: split YFP, Nicotiana benthamiana leaves, 2–3 days after infiltration, Figure 5C
# Procedure: BiFC was performed as described by Sun et al.. For BiFC assays, MRG2C cDNA was amplified using primers MRG2-11/MRG2-12, and then cloned into pXY103 and pXY106 vectors. CO cDNA was amplified by primers CO-3/CO-4, and then cloned into a pXY104 vector. Leaves of 4- to 8-week-old Nicotiana benthamiana plants were co-infiltrated with Agrobacterium tumefaciens strain […] carrying transgene constructs. Localization of BiFC fluorescence was observed 2–3 days after infiltration using a confocal laser scanning microscope (LSM 710, ZEISS, Germany).
# CO [2] = assay: Pull-down truncation analysis of MRG2 with GST-fused CO; format: binding, Arabidopsis; conditions: in vitro pull-down, Figure 5B
# Procedure: (§1) MRG2 and MRG2C (442–984) cDNA were amplified with primers MRG2-1/MRG2-10 and MRG2-9/MRG2-10, respectively, and then cloned into pET-30a vector (Novagen, www.novagen.com). The resulting constructs and pET-30a-MRG2N were used for purification of His-tagged MRG2, MRG2C, and MRG2N proteins. CO cDNA was amplified using primers CO-1/CO-2, and then cloned into pGEX-4T-1 vector for purification of GST-fused CO proteins. Pulldown experiments were performed according to a previously described protocol.
# MRG2 = assay: GST pull-down assay, His-tagged MRG2; format: binding, Arabidopsis; conditions: in vitro, purified proteins from E. coli, Figure 5B
# Procedure: as §1
Molecule,interaction with CO in vivo (CO [1]),binding to CO (CO [2]),pull-down of His-tagged MRG2 (MRG2)
B1,interacted in vivo,,
B2,,not,
B3,interacted in vivo,contributed to binding to CO,
B4,,,could pull-down MRG2
